Source: patent US20060204443A1, “Methods for tumor treatment using dendrimer conjugates” (The Government of the USA as represented by the Secretary …, priority 2005, published 2006)
“Also recorded” adds a separate entry of the source.

Tests used:
[1] = tested on: axillary lymph nodes and their lymphatic vessels; assay: Dynamic 3D-MR lymphangiography, effect of contrast agent size (Example 4); type: in vivo, athymic nu/nu mice; conditions: for Signal intensity within the axillary lymph node (enhancement ratio, lymph node / adjacent muscle): 0.15 μmolGd/5 μL
Procedure: Mice were anesthetized with 1.15 mg sodium pentobarbital (Dainabot, Osaka, Japan) by intraperitoneal injection. Then 0.15 μmolGd/5 μL of all nano-size contrast agents or 0.45 μmolGd/5 μL of Gd-[DTPA]-dimeglumine were injected into normal mammary glands or mammary tissue surrounding a tumor. Dynamic MR images were obtained using a 1.5-Tesla superconductive magnet unit (Signa LX, General Electric Medical System, Milwaukee, Wis.) with a birdcage type coil of 3 cm diameter fixed by a custom-made coil holder. The mice were wrapped with gauze to conserve their body temperature and were placed at the center of the coils.
In order to evaluate the effect of contrast agent molecular size on the ability to visualize the lymphatics and lymph nodes of athymic nu/nu mice, thirty five non-tumor bearing nu/nu mice were divided into seven groups (n=5). The mice were evaluated with 3D-fast spoiled gradient echo (3D-fastSPGR (efgre3d package; Signa Horizon, GE); repetition time/echo time 19.2/7.2 msec; inversion time 47 msec; bandwidth 31.2 kHz, flip angle 30°, 4 excitations; 36 slice encoding steps; scan time 4 minutes 49 seconds) with chemical shift fat-suppression at 6, 12, 18, 24, 30, and 36 minutes post-injection of each contrast agent. The coronal images were reconstructed with 0.6-mm section thickness every 0.3-mm. The field of view was 8×4 cm and the size of the matrix was 512×256. The slice data were processed into 3D images using the maximum intensity projection (MIP) method with the same window and level (window 3500 and level 2100) (Advantage Windows, General Electric Medical System). The enhancement ratio was calculated by taking the average signal intensity in the axillary lymph node and dividing it by the signal intensity in the adjacent muscle.

[2] = Quantification of contrast agent in sentinel lymph nodes (signal intensity compared with phantoms); type: in vivo, athymic nu/nu mice
Procedure: In order to semi-quantify the concentration of contrast agent within each sentinel lymph node, non-tumor bearing athymic nu/nu mice (n=8) were anesthetized and injected with 0.40 μmolGd of the G6 contrast agent (40 mMGd/6400 ppm) into the mammary gland, and axial images were taken with serum phantoms containing known concentrations (2.5 and 5 mM) of G6 using the 3D-fastSPGR (repetition time/echo time 19.2/7.2 msec; inversion time 47 msec; bandwidth 31.2 kHz, flip angle 30°, 3 excitations; 16 slice encoding steps; scan time 2 minutes 25 seconds) 12, 24, 36, 48, and 60 minutes after injection.
To validate the concentration of G6 agent, we used another method to calculate the Gd concentration in the enhanced left axillary lymph node. The consecutive MR images of 5 separate mice together with the same phantoms used above were taken with the same 3D-fSPGR protocol using 4 flip angles (10, 20, 30, and 40 degrees) at 24 min post-injection of 40 mM/20 μL G6 agent in the left mammary gland. Signal intensity of the enhanced left axillary lymph node was corrected with that in the right axillary lymph node as a non-enhanced control. Then, signal intensities obtained with different flip angles were plotted in order to calculate decreased T1 values in the left axillary lymph node due to the presence of G6 agent. Gd(III) concentrations were calculated based on the decreased T1 values in the enhanced node and the R1 relaxivity of G6 agent at this condition. Technically, multi-flip angle scans were able to be performed once an hour because of the gradient driver overheat on the MRI system. In order to calculate serial concentration of the G6 agent, this separate set of mice was used only to obtain the T1 values. The serial concentrations of G6 agent were calculated based on serial scan data under flip angle (30°) and T1 values obtained from multi-flip angle scans.

[3] = in vivo

With “PAMAM-G6D-(Gd-1B4M)256 dendrimer conjugate” the “Visualization of axillary lymph nodes and their lymphatic vessels” value ([1]; 6-36 minutes post-injection into mammary gland, listed as G6) was “earliest and most intense opacification of the sentinel lymph nodes; also recorded: visualized at all time points in all 10 mice”, the “Signal intensity within the axillary lymph node (enhancement ratio, lymph node / adjacent muscle)” value ([1]; 6 minutes post-injection) was 2.6±0.2 and the “Signal intensity within the axillary lymph node (enhancement ratio, lymph node / adjacent muscle)” value ([1]; 12 minutes post-injection) was 2.9±0.3. For the same substance, the “Time of maximum concentration in the axillary lymph node” value ([2]; five mice) was 24 minutes post-injection in two of five mice and 36 minutes post-injection in three of five mice, the “Retention in the left axillary lymph node (FIG. 23)” value ([2]; mouse, in vivo) was “maintained in high concentration in the lymph node for up to 60 minutes post-injection” and the “Accumulation in the lateral thoracic lymph nodes” value ([2]; number of mice) was “three of five mice”. For the same substance, the “Survival in the lymph system” value [3] was “intermediate survival period in the lymph system”.
